The results in this text go back to US20180164286A1 (MEDICAL DIAGNOSTIC LABORATORIES, published 2018).

Test [1] has as its target Small BiT (SB)-eIF4E, full-length. The experiment in a line: cell-based or functional assay.
Test [2] deals with T1, Small BiT (SB)-eIF4E, full-length.
T1 construct: N-terminal Small BiT fusion of full-length eIF4E (cDNA Origene RC207333), expressed intracellularly in HEK293, MCF-7 or HEK293-derived clones; also called Full-length SB-eIF4E; SB-linked eIF4E
Nature of the test: split-luciferase luminescence in 3A1 cell line stably expressing SB-eIF4E.

Test [3] shares this target. Nature of the test: split-luciferase (NanoBiT) luminescence in HEK293 cells.

B1: 4E-BP1 with C-terminal LB at residue 75 (other, UniProt Q13541 1-75, looked up, not shown: large carriers)
chain: MSGGSSCSQTPSRAIPATRRVVLGDGVQLPPGDYSTTPGGTLFSTTPGGTRIIYDRKFLMECRNSPVTKTPPRDL
As to B1, in test [1], the “fold-change of split-luciferase luminescence, rapamycin (50 nM, 1 h) over vehicle; HEK293 cells” value was 0.83 fold.

B2: Large BiT (LB)-4E-BP2, full-length (other)
chain: MVFTLEDFVGDWEQTAAYNLDQVLEQGGVSSLLQNLAVSVTPIQRIVRSGENALKIDIHVIIPYEGLSADQMAQIEEVFKVVYPVDDHHFKVILPYGTLVIDGVTPNMLNYFGRPYEGIAVFDGKKITVTGTLWNGNKIIDERLITPDGSMLFRVTINSGSSGGGGSGGGGSSGMSSSAGSGHQPSQSRAIPTRTVAISDAAQLPHDYCTTPGGTLFSTTPGGTRIIYDRKFLLDRRNSPMAQTPPCHLPNIPGVTSPGTLIEDSKVEVNNLNNLNNHDRKHAVGDDAQFEMDI
Take B2: in test [1], the “fold-change of split-luciferase luminescence, rapamycin (50 nM, 1 h) over vehicle; HEK293 cells” value amounted to 1.84 fold.

B3: R62P LB-4E-BP2 (other)
chain: MVFTLEDFVGDWEQTAAYNLDQVLEQGGVSSLLQNLAVSVTPIQRIVRSGENALKIDIHVIIPYEGLSADQMAQIEEVFKVVYPVDDHHFKVILPYGTLVIDGVTPNMLNYFGRPYEGIAVFDGKKITVTGTLWNGNKIIDERLITPDGSMLFRVTINSGSSGGGGSGGGGSSGMSSSAGSGHQPSQSRAIPTRTVAISDAAQLPHDYCTTPGGTLFSTTPGGTRIIYDRKFLLDPRNSPMAQTPPCHLPNIPGVTSPGTLIEDSKVEVNNLNNLNNHDRKHAVGDDAQFEMDI
notes: Patient (COSMIC) mutation made in LB-4E-BP2 as a linear expression cassette; The residue number counts on 4E-BP2 itself; also called 4EBP2-R62P
B3: the binding result in test [2] was “no binding”.

B4: D55Y LB-4E-BP2 (other)
chain: MVFTLEDFVGDWEQTAAYNLDQVLEQGGVSSLLQNLAVSVTPIQRIVRSGENALKIDIHVIIPYEGLSADQMAQIEEVFKVVYPVDDHHFKVILPYGTLVIDGVTPNMLNYFGRPYEGIAVFDGKKITVTGTLWNGNKIIDERLITPDGSMLFRVTINSGSSGGGGSGGGGSSGMSSSAGSGHQPSQSRAIPTRTVAISDAAQLPHDYCTTPGGTLFSTTPGGTRIIYYRKFLLDRRNSPMAQTPPCHLPNIPGVTSPGTLIEDSKVEVNNLNNLNNHDRKHAVGDDAQFEMDI
notes: Patient (COSMIC) mutation made in LB-4E-BP2 as a linear expression cassette; The residue number counts on 4E-BP2 itself; also called 4EBP2-D55Y
For the molecule B4, the binding result in test [2] is “no binding”.

B5: LB-4E-BP1 with T37E, T46E, S65E, and T70E (other)
chain: MVFTLEDFVGDWEQTAAYNLDQVLEQGGVSSLLQNLAVSVTPIQRIVRSGENALKIDIHVIIPYEGLSADQMAQIEEVFKVVYPVDDHHFKVILPYGTLVIDGVTPNMLNYFGRPYEGIAVFDGKKITVTGTLWNGNKIIDERLITPDGSMLFRVTINSGSSGGGGSGGGGSSGMSGGSSCSQTPSRAIPATRRVVLGDGVQLPPGDYSTEPGGTLFSTEPGGTRIIYDRKFLMECRNEPVTKEPPRDLPTIPGVTSPSSDEPPMEASQSHLRNSPEDKRAGGEESQFEMDI
notes: All four mTOR phosphorylation sites changed to glutamate on the LB-4E-BP1 plasmid; The residue numbers count on 4E-BP1 itself; also called T37/46/70E/S65E (all 4 sites mutated); all E
Consider B5, for which, in test [3], the binding result is given as “no binding”.
